experiment: soluble on expression in E. coli; label from the status in PepcDB or PDB records

Sequence	soluble on expression in E. coli
MSLNRVLDILKDRSLTYHQQIKDLAAYAESTIEVLNIDDETKKLIDEGCICTLFEGNAPFRPRYIIPDYSLLMEKGCEFLNLSVPEDIWEATNNLLIFYKHVPSITTFPVYLGNIDELLEPFIEDEREAKRAIKLFLKHIDRTLTDSFVHANIGPRETVAGRLILESMDELQCAVPNLSMKYDLENTPESFINLCAKVALSTAKPSFANHKMDVKSFGTDRYAIASCYNGFHIGGGGYTLVRIKLNEVAKKATSVEDFLENVLPYVSTKMIQYIDERIRFLVEETQFFTSNFLVKEGFIQKKLFTGMFGVVGLAEAVNTLLGAEKQSDRFGYSEKANKLGLRIIEKLNKIVSEHEAKHVNCFGGHYVLHAQVGIDLDQNVSPGCRIPVGEEPELFNHIMQSAPFHKYFYNGIGDIFVFEDTYNDHPEALVDIIKGAFNSGIRYMSVYGSGADVVRVTGYLAKRSEVEKLERGEAVLNNTDLFAMGAKNNCHAFERKIREGHHHHHH	soluble
MFYCRSGFEKECAGEIQDKATQLEVFGFPRLKNNTGYVLFECYQEGDADRLIREIKFNELIFARQMFAVAAEVSDLPKDDRISPILDALSDVDGVPCCGDIRIETPDTNEAKELLKFCRKFTVPMRQALRGKKMLTERDSNRIPVLHICFIAPGHCYVGYSYTNNNSQFFMGIPRLKFPADAPSRSTLKLEEAFHVFIPKEEWDDRLASGMWGVDLGACPGGWTYQLVKRSMFVHAIDNGMMAQSLMDTGQVKHHMVDGFKFEPPRKNVTWLICDMVEKPARVAHLMGEWLIKGWAKEALFNLKLPMKGRYDEVLQDIENLKDFLKKNGFQYKLQAKHLYHDREEITVHIQAISNISPH	not soluble
CHQDCPQMSPQPEMDRFASEFGEQDVAVDGQAPENALENDEPKYAPQVISEQNAFLMREMMYSNIWGGGNWREGTGWNGTGWRAQKLERRDIGGKTGTTNDSKDA	not soluble
MLYSSNAILLTVICYELPLSERIRMLLRLEDLFDKIDFFSARDTSFEHHAVLVALFEILDVTSRSDLKSDLLQELDKQRTMLEGLRSNPEVSEKALDHILQDIRAAFRGLLDIPGRIGGHLRDDEWLMSVKQRMSIPGAACEFDLPAYHYWLNLAPEIRREDLKDWITPFTPIRSGINIVLNMLRNSGKNCCYTAVQGLFQQAGSEHQAHLLRLHISSEFPCVPEISANKYALNIRFVPWRSDHKTEVYEEDIPFELTFCSL	not soluble
MSERAYNFNAGPAALPLEVLERAQAEFVDYQHTGMSIMEMSHRGAVYEAVHNEAQARLLALLGNPTGYKVLFIQGGASTQFAMIPMNFLKEGQTANYVMTGSWASKALKEAKLIGDTHVAASSEASNYMTLPKLQEIQLQDNAAYLHLTSNETIEGAQFKAFPDTGSVPLIGDMSSDILSRPFDLNQFGLVYAGAQKNLGPSGVTVVIVREDLVAESPKHLPTMLRYDTYVKNNSLYNTPPSFGIYMVNEVLKWIEERGGLEGVQQANRKKASLIYDAIDQSGGFYRGCVDVDSRSDMNITFRLASEELEKEFVKASEQEGFVGLKGHRSVGGLRASIYNAVPYESCEALVQFMEHFKRSRG	soluble
MSLRQAHFLKGKDAMNNPSVIPAFDFREMVTTLDNKIITTSLKVADYFGKRHKDVLRAIRNLKCSDDFTQRNFAPIDFIDKNGDVQPMYNITRDGCMMLVMGFTGKTAAAVKECYINAFNWMAEQLNRRMAMGEEGHHHHHH	soluble
GSHMAEPQRHKILCVCCKCDGRIELTVESSAEDLRTLQQLFLSTLSFVCPWCATNQ	soluble
MQIITTTFIQKVILGSHQLHEQLSIVEARMIESAIVSMLTESFCENEQTLKYLARLLSPMSYMDVINARRGKKICGYPLCYKSAAENSSDGFFIHSMYCNNYHSKCSLYLMRQLSQTPLHERRGVHLTSYINLEFDDMYSVSLLEELVGSEVPIDTVKSLITSFKDLEFDDTYKNEPLPLDVYFGQLTTDEETCIE	not soluble
MGSDKIHHHHHHVPDITIATERCIGCAECARDCPTGIIRMENGIPAVAPRREKRCIGCLHCVTVCPCGALSFRGVTPESCTPLKNRFPQPEALEILMKGRRSVRRFLPEAVDSALIRRTVDAAAHAPSGKNQRGLLFTVVDDPQTMNRLRHDTVEAVREALADGCSHPQTAFFQAALARWDTGTDIIFRNAPHLLWVTAPRTNTTAQADVHVALTYFELMAAACGLGTLWCGFATWAMSEIAPRIARGLGIPEAHTSGYVMLFGKPAVRYHRTAERGCDGFNRVVWPPAT	not soluble
MGSDKIHHHHHHMNILNIYNEFDINNFDLSVDHYGSEKCDRGYSFGPTIRDNYVIHFILEGKGKLTINQHTLDLAAGDIFLLPKDISTFYQADLQMPWSYIWIGFSGSKAENILKQSSLFKRFYCHSGRSSKLFSQMMTIIQFANTPLTSVNELLMVGELYKLLAALIEEFPLSHLEESNSSTKAYVNQVKKIIHSQYGSSLRVNDIAKKLNLSRSYLYKIFRKSTNLSIKEYILQVRMKRSQYLLENPKLSIAEISNSVGFSDSLAFSKAFKNYFGKSPSKFRKEIQNN	not soluble
MGSDKIHHHHHHMATNSSTEQSLTKKVWNLATTLAGQGIGFTDYITQLTYLLFLKMDAENVEMFGEESAIPTGYQWADLIAFDGLDLVKQYEETLKLLSELDNLIGTIYTKAQNKIDKPVYLKKVITMIDEEQWLIMDGDVKGAIYESILEKNGQDKKSGAGQYFTPRPLIQAMVDCINPQMGETVCDPACGTGGFLLTAYDYMKGQSASKEKRDFLRDKALHGVDNTPLVVTLASMNLYLHGIGTDRSPIVCEDSLEKEPSTLVDVILANPPFGTRPAGSVDINRPDFYVETKNNQLNFLQHMMLMLKTGGRAAVVLPDNVLFEAGAGETIRKRLLQDFNLHTILRLPTGIFYAQGVKANVLFFSKGQPTKEIWFYDYRTDIKHTLATNKLERHHLDDFVSCYNNRVEIYDAENNPQGRWRKYPVDEIIARDKTSLDITWIKPGGEVDDRSLAELMADIKDKSQTISRAVTELEKLLANIEEN	not soluble
MVFDKLLEQAGINLEFEDKEIKDSDYLGDVSDLIKIAVIGVGGSGNNTISRLYDLGVQGADLIAMNTDAQHLHQIKAHKKLLLGKSITHGKGSGGDPRIGYRAAEASASEIADIVKDYDLIFLTAGMGNGTGTGATPVIARIIKETARNNGLPQEPLVISVVTFPFKMEGKVRIEKAKAGIEMLLEYSDTVIIIQNDKLIELVPKLPIQVAFRFADEIIARMVKGIVETIKLPSMVNIDYADIYSVMKGGGPALIGIGESDSNNRAVDAVMEALNNKMLDIEFGSGDKALVHFTVGPDVSLEEITKAMEIVYERLGEKSEIKWGAMIEEDMGKTVRAMVIMTGVRSPQILGNINVNALTYSSSSLVVPRDSKIMSESKVDEIFSSIDPRASKLRKGNNSSRINKIFKDLGFYEL	soluble
MGSDKIHHHHHHMQLPGGVQLTYCTNLHAASSLDEVRANLDRYAVPLKARLSPNAPFGIGLRLSGQESAELLEGQALAAFKAFLDERGLYVFTLNGFPYGPFHGQPVKTQVHAPDWRDAERVAYTQRLAEILAFLLPEGGEGGISTSPLSYRGWVEADSRSAWIQMTGNLVRVVETLIRLRQRWGRFIHLDLEPEPDGLLQCSDDLARFFREHLLGGGARDLAARLGIDVEQARAYLRDHVQVCFDTCHVAVMYEDPAQALQTYEQVGLRIGKVQISSALRLPLPPDPEARLDGARALVPFVEDTYLHQVIGRSRDGKIVQYPDLPPALAHVRDPQVTEWRIHFHIPVFLERAGLFASTQPEIVKTLALLREKGFTRHLEIETYTWDVLPEALKLPLLCSIEREYRWVMDVL	not soluble
QYSLLHVSDLFFLAQQAMPGVQVLDALTGKPVEGASVDASMRYSIDRSVHTLSPTDRYGRIDLPKSYNRFFPYTDGDRSYPVVSAYTYKQDQVDLSKKNERKYIVSTDRAIYRPGQKVHFFGQCDRIGYAVEDARAIGGSEVEVVLEDANSKEIGRLLCQADEMGRFSGSFDLPTGILNGLFGLRVGGDTYPFSVEEYKRPTFEVGLRSPDAAYAMGDTLRIRGEAKTFTGIGMRGATVNYRLSLTPYTRRWWGRPVADRVVQTGEAVVDES	not soluble
ADINHGENVFTANCSACHAGGNNVIMPEKTLQKDALSTNQMNSVGAITYQVTNGKNAMPAFGGRLSDDDIEDVASFVLSQSEKSWN	soluble
TKDFSWTTAFNLSHNKNKILKLADLPWFVDGRYVRKEGYPFNTIYLREYAGVDPETGSALYYDNQQDENGNYTKNKVTDPGQASPIPLKDITPTISGGFMNTFNYKFIDLSFNLSYSFGGYSYDNASYILQDDGYSVISNKSTEQRRRWQKPGDITDVPRFVYGNKKGGNYNSSRAIHSTDHIRLKSLILGLNAPKAWLQKLGIGNARIYFSGTNLLTWAAYDQYDPEMSGVVGFYTPPLKTYAFGLELKF	not soluble
MASFITRAERSGNIFSRVTGLIRAGQLNWADRPLWYDVYVSSPPLTPPDWNVKLAKYDEPIRSIFYEEDVLRAKFYKTYRSTAGIQVDSSRTSVSQQFINEYKLVKSENAEATDDQLFEMTQKRLNENGIVLK	not soluble
MSAVTYTFLGPQGTFTEAALMQVPGAADATRIPCTNVNTALERVRAGEADAAMVPIENSVEGGVTATLDAIATGQELRIIREALVPITFVLVARPGVELSDIKRISTHGHAWAQCRLWVDEHLPNADYVPGSSTAASAMGLLEDDAPYEAAICAPLIAAEQPGLNVLAEDIGDNPDAVTRFILVSRPGALPERTGADKTTVVVPLPEDHPGALMEILDQFASRGVNLSRIESRPTGQYLGHYFFSIDADGHATDSRVADALAGLHRISPATRFLGSYARADKQPAVVAPHTSDAAFASAHAWVDSILKGS	soluble
MSLAQPCAIIDLETTGGNIARDRITEVGMVLIDGERVERLSWLVNPGQPIPPFIENMTGISNEMVAGAPPFSAQADELLDRLQGRLLLAHNARFDYGFLKNEFRRHGLRFQARALCTVKLSRRLYPQHFKHSLDSLIARHGIDMPERHRALADAEAVYRFIRIAEAELGEDRVAHEAAQLLSQPAELSSLPAELQQQIEEGHHHHHH	not soluble
WFDTLNCHRLSDYQVGRAADIRLPEGCAFSDGIGSAFALEEAPPFSGRPDMPTAADFLALAAKGGYPAVHAAHAGLLYVRNKIALTAKEQAERRARP	not soluble
MAKMTTLKMKERLEKELQAPNRQFSYNRDNDALTVVQSGKKVTLAIPQIIANYENDGDAAVEKIVYYVEEGFRAAAGNVELENNKANVYPVVRATSFPGETKAGEVLLTDDHTAETKIFYAVDLGKSYRFIEESMLKKAQLTHEEIREAAFNNLANLEIPLKKDSVNGNDFYFVRTNDGYDASRLLNEAFLREMREKLTGEMVLAVPHQDVLIIGDIQDNTGYDVLAHMTMDFFADGLVPITSLPFVYNNGKLEPIFIMAKNRLKE	not soluble
LPENGPEFKIEISLLKDQARVMIDTTGPSLFKRGYRTEKGGAPIKENMAAAIILLSNWFPDKPFVDPTCGSGTFCIEAAMIGMNIAPGFNRDFAFEEWPWVDEALVTRVRNEADEQADYDIQLDISGFDFDGRMVEIARKNAREVGLEDVVKLKQMRLQDFKTNKINGVLISNPPYGERLLDDKAVDILYNEMGETFAPLKTWSQFILTNDTDFEQKFGRKADKKRKLYNGSLKVDLYQFYGQRVKRVLR	not soluble
